Results published in article doi:10.1101/2022.06.15.496229.

Assays:
[1] = target: DHR2 domain of human DOCK10 (DOCK10^DHR2, residues 1695-2151) (human) (UniProt Q96BY6); experiment: SEC-MALS
[2] = target: DHR2 domain of human DOCK10 (DOCK10^DHR2, residues 1695-2151) (human) (UniProt Q96BY6); experiment: ITC

Chain of DHR2 domain of human DOCK10 (DOCK10^DHR2, residues 1695-2151) (human) (Q96BY6 1695-2151): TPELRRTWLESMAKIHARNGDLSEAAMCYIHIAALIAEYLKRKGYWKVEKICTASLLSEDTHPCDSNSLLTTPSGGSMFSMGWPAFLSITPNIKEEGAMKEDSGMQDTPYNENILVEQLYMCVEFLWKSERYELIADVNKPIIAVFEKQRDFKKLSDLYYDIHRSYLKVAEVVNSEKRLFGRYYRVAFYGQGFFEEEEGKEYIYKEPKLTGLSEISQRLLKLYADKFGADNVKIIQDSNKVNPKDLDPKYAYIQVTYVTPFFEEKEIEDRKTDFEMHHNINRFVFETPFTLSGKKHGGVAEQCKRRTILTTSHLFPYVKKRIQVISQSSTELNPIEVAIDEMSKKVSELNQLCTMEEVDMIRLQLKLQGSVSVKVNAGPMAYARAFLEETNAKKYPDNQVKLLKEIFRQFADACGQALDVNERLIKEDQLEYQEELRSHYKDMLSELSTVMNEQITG

Substance	stoichiometry N (DOCK10^DHR2 per RAC1) [1]	dH [2]
RAC1 (residues 1-192) (from UniProt P63000 1-192) (natural protein)	2	
RAC3 (residues 1-192) (from UniProt P60763 1-192) (natural protein)		-2.05 kcal/mol
